Experimental data as given in paper PMC8041169.

Biological target: recombinant truncated LvAPN1-His (N-terminal region of Litopenaeus vannamei aminopeptidase N1 with the Cry toxin binding region and the active site of the peptidase-M1 domain) (Litopenaeus vannamei)
Assay: ELISA; 20 ug purified truncated rLvAPN1 coated overnight in 0.1 M carbonate/bicarbonate buffer pH 9.6 at 4 C; blocked with 0.5% BSA in TBS pH 8.0; rPirA^vp, rPirB^vp or rGST at 0-10 uM in TBS incubated at 4 C overnight; detected with rabbit anti-PirA^vp or anti-PirB^vp polyclonal antibody and HRP-conjugated secondary antibody, A450; one-site binding model; apparent Kd

Row | Substance | Kd
1 | recombinant PirA^vp-His toxin subunit of Vibrio parahaemolyticus (VP_AHPND) (natural protein) | 3200 nM
2 | recombinant PirB^vp-GST toxin subunit of Vibrio parahaemolyticus (VP_AHPND) (natural protein) | 500 nM
